Data set [1] concerns the target T1, lysozyme (hen (egg white), UniProt P00698 19-147). The data set can be described thus: HPTLC-aptastaining; no obvious differences to LysApt5; White wine mimicking buffer: 1.5 mM KCl, 14.5 mM K acetate, 3.5 mM Mg acetate, 1.5 mM Ca acetate, 1 mM NaH2PO4, 4 mM KH2PO4, 11.5% (v/v) ethanol, pH 3.1; room temperature; plates blocked with 0.6% Tween 20; aptamer 5 nM (silica gel, cellulose) or 0.5 nM (RP). As to conditions: protein: native; label: 5' ATTO 550.

Data set [2] has as its target T2, beta-lactoglobulin (UniProt P02754 17-178).
T2 sequence: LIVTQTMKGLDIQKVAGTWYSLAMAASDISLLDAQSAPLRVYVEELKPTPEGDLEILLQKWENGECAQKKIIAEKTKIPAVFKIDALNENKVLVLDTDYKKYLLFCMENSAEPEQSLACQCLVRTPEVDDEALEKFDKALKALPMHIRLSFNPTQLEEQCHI
The data set can be described thus: HPTLC-aptastaining; RP-18W and silica gel plates; White wine mimicking buffer: 1.5 mM KCl, 14.5 mM K acetate, 3.5 mM Mg acetate, 1.5 mM Ca acetate, 1 mM NaH2PO4, 4 mM KH2PO4, 11.5% (v/v) ethanol, pH 3.1; room temperature; plates blocked with 0.6% Tween 20; aptamer 5 nM (silica gel, cellulose) or 0.5 nM (RP). As to conditions: protein: native; chain copies: 2; label: 5' ATTO 550.

The target of data set [3] is T1, lysozyme. Described as above. To be noted: protein: native; label: 5' ATTO 550.

T1 sequence (P00698 19-147): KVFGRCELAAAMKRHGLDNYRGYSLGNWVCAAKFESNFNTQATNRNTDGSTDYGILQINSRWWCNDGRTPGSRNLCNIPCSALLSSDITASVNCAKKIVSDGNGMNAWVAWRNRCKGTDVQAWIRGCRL

B1: 5'-ATTO 550-LysApt4 (ssDNA)
DNA: CATCCGTCACACCTGCTCTTGTTATTTTTTGTTGATGTAGGTTTGATGATGTATTTCCGGTGTTCGGTCCCGTATC
Consider B1, for which the binding result in data set [1] is on record as “binds”.

B2: 5'-ATTO 550-LysApt5 (ssDNA)
DNA: CATCCGTCACACCTGCTCCCTGCTAGAATTTTTCATGATCTTGCTGTATTTCTATTATGGTGTTCGGTCCCGTATC
B2: the binding result was “no binding” in data set [2] and “binds” in data set [3].

The values are drawn from article PMC4879557, “HPTLC-aptastaining – Innovative protein detection system for high-performance thin-layer chromatography”.
